Consider 1 substance from paper doi:10.1101/2022.11.09.515782.

The target of this assay is glycophorin A TMD, BLaTM chimera. The assay can be described thus: split reporter.

In the case of “glycophorin A TMD, BLaTM chimera (domain or fragment)”, the ampicillin LD50 stood at 100 µg/mL.
